Each block holds one binder with its values, some of them ahead of it.
How the values were obtained:
recombinant human sc-uPA [1] = target: T1, recombinant human sc-uPA (human, UniProt P00749 21-431); test: cell-based or functional assay
[2] = target: T2, recombinant cynomolgus sc-uPA (cynomolgus monkey, UniProt P16227 29-433 (Papio cynocephalus entry)); test: cell-based or functional assay
recombinant human sc-uPA [3] = target: T1, recombinant human sc-uPA; test: cell-based or functional assay; remark: listed apart in the source
[4] = target: recombinant human tc-uPA (R&D Systems, #1310-SE) (human, UniProt P00749 21-178; P00749 179-431); test: cell-based or functional assay
recombinant human sc-uPA [5] = target: T1, recombinant human sc-uPA; test: SPR (Biacore T200), mAb immobilised, sc-uPA as analyte
Protocol: (§1) Affinities of the anti-uPA mAbs towards human and cynomolgus sc-uPA (SEQ ID NO: 1 and 3) were measured by SPR using a Biacore T200 instrument (GE Healthcare). These studies were performed using a direct binding procedure. […] Injection time was 60 sec., followed by 180 sec. dissociation. Regeneration was performed by injection of two short pulses of glycine-HCl pH 1.5.
(§2) The kinetic parameters (kₐ, kd and KD) for the interaction were calculated using a 1:1 interaction Langmuir fitting model.
(§3) Results are shown in Table 2 Association rate constant (ka) and Dissociation rate constant (kd) were measured. Equilibrium dissociation constant is calculated as KD=kd/ka.

[6] = target: T2, recombinant cynomolgus sc-uPA; test: as above
Protocol: as §1, §2, §3

recombinant human sc-uPA [7] = target: T1, recombinant human sc-uPA; test: SPR, mAb immobilised
Protocol: The binding affinity to recombinant human sc-uPA protein (SEQ ID NO:1) was measured by surface plasmon resonance (SPR).
(§4) The experiments were performed on a Biacore™ instrument (GE Healthcare) and analysed with the BIAcore 4000 Evaluation Software. Anti-human uPA mAb variants were directly immobilized at 150-600 RU on flow cells of a CM5 sensor chip (GE Healthcare; cat. # BR-1000-12) via amine coupling, respectively. Recombinant human sc-uPA was diluted in HBS-N (GE Healthcare Cat BR-1006-70) with 1% BSA buffer with a dilution factor 3× ranging 1000-0.13 nM. Recombinant human sc-uPA was injected for 60 s, followed by a 600 s dissociation phase. Binding curves were measured at 25° C. with a flow rate of 30 μL/min. Regeneration of the chip surface was performed with pH1.5 Glycine for 25 s at 30 μl/min. Determination of the kinetic parameters was performed by fitting with a 1:1 binding model. Binding affinities were calculated and are stated in Table 17 below.

recombinant human sc-uPA [8] = target: T1, recombinant human sc-uPA; test: SPR, mAb immobilised; remark: listed apart in the source
Protocol: The binding affinity to recombinant human sc-uPA protein (SEQ ID […]) was measured by surface plasmon resonance (SPR).
as §4, with “20” for “17”

recombinant human sc-uPA [9] = target: T1, recombinant human sc-uPA; test: SPR (Biacore), mAb immobilised, sc-uPA as analyte, 25 C
Protocol: (§5) In order to compare with murine mAb, the binding profile to recombinant human sc-uPA protein (SEQ ID NO: 1) and cynomolgus sc-uPA (SEQ ID NO: 3) was measured by surface plasmon resonance (SPR).
as §4, with “Software. […]” for “Software. Anti-human uPA mAb variants were directly immobilized at 150-600 RU on flow cells of a CM5 sensor chip (GE Healthcare; cat. # BR-1000-12) via amine coupling, respectively.”, “sc-uPA and cynomolgus sc-uPA proteins were” for “sc-uPA was”, “model. Kinetic parameters” for “model. Binding affinities”, “Table 14” for “Table 17”

[10] = target: T2, recombinant cynomolgus sc-uPA; test: as above
Protocol: as §5
as §4, with “Software. […]” for “Software. Anti-human uPA mAb variants were directly immobilized at 150-600 RU on flow cells of a CM5 sensor chip (GE Healthcare; cat. # BR-1000-12) via amine coupling, respectively.”, “sc-uPA and cynomolgus sc-uPA proteins were” for “sc-uPA was”, “model. Kinetic parameters” for “model. Binding affinities”, “Table 14” for “Table 17”

[11] = target: endogenously derived human uPA (primary human M1/M2 macrophages; human neutrophil granulocytes) (human, UniProt P00749 21-431); test: cell-based or functional assay

IC50, coupled zymogen activation assay, sc-uPA immobilized on uPAR of U937 cells (recombinant human sc-uPA [1]): < 700 pM | IC50, coupled zymogen activation assay with cynomolgus sc-uPA [2]: 900 pM | IC50, coupled zymogen activation assay (Ex. 5) (recombinant human sc-uPA [3]): < 700 pM | IC50, sc-uPA activation assay (Ex. 8) (recombinant human sc-uPA [3]): 5000 pM | IC50, tc-uPA catalytic assay (Ex. 7) [4]: 113000 pM | Kd (recombinant human sc-uPA [5]): 1020 pM | koff (recombinant human sc-uPA [5]): 0.000345 s⁻¹ | kon (recombinant human sc-uPA [5]): 340000 M⁻¹ s⁻¹ | Kd [6]: 121 pM | koff [6]: 5.74e-05 s⁻¹ | kon [6]: 473000 M⁻¹ s⁻¹
B1: 0266-0000-0010 (antibody, IgG1, V domains shown)
VH: DVKLVESGGGLVKPGGSLKLSCVASGFTFSSYTMSWVRQTPEKRLEWVATISGGGSHIYYADSVKGRFTISRDNAKNTLYLQMSSLKSEDTAIYYCTRDGRDGSWFAYWGQGTLVTVSA
VL: DIVMTQSPATLSVTPGDRVSLSCRTSQSIGDYLHWYQQKSHESPRLLIKYVSQSISGIPSRFSGSGSGSDFTLSINSVESEDVGVYYCQNSHSFPLTFGSGTKLELK

Kd (recombinant human sc-uPA [7]): 470 pM | Kd (recombinant human sc-uPA [8]): 470 pM | Kd (recombinant human sc-uPA [9]): 944 pM | koff (recombinant human sc-uPA [9]): 0.00053 s⁻¹ | kon (recombinant human sc-uPA [9]): 561000 M⁻¹ s⁻¹ | Kd [10]: 52.6 pM | koff [10]: 0.000104 s⁻¹ | kon [10]: 1.98e+06 M⁻¹ s⁻¹
B2: rec0266-0000-0010 (antibody, mouse IgG1, V domains shown)
VH: B1 VH
VL: DIVMTQSPATLSVTPGDRVSLSCRTSQSIGDYLHWYQQKSHESPRLLIKYVSQSISGIPSRFSGSGSGSDFTLSINSVESEDVGVYYCQNSHSFPLTFGSGTKLELKR
notes: also called mAb rec0266-0000-0010

IC50, coupled zymogen activation assay, sc-uPA immobilized on uPAR of U937 cells (recombinant human sc-uPA [1]): < 700 pM | IC50, plasmin generation by human M1/M2 macrophages [11]: 2100 pM | Kd (recombinant human sc-uPA [9]): 1780 pM | koff (recombinant human sc-uPA [9]): 0.0009 s⁻¹ | kon (recombinant human sc-uPA [9]): 506000 M⁻¹ s⁻¹ | Kd [10]: 112 pM | koff [10]: 0.000164 s⁻¹ | kon [10]: 1.46e+06 M⁻¹ s⁻¹
B3: 0266-0000-0043 (antibody, human IgG4 S228P, kappa, V domains shown)
VH: DVKLVESGGGLVKPGGSLRLSCAASGFTFSSYTMSWVRQAPGKGLEWVATISGGGSHIYYADSVKGRFTISRDNAKNSLYLQMNSLRAEDTAVYYCTRDGRDGSWFAYWGQGTLVTVSS
VL: DIVMTQSPAFLSVTPGEKVTISCRTSQSIGDYLHWYQQKPDQSPKLLIKYVSQSISGIPSRFSGSGSGSDFTFTISSLEAEDAATYYCQNSHSFPLTFGGGTKVEIKR
notes: also called rec0266-0000-0043

IC50, coupled zymogen activation assay, sc-uPA immobilized on uPAR of U937 cells (recombinant human sc-uPA [1]): < 700 pM | IC50, coupled zymogen activation assay (Ex. 5) (recombinant human sc-uPA [3]): < 700 pM | IC50, sc-uPA activation assay (Ex. 8) (recombinant human sc-uPA [3]): 3000 pM | IC50, tc-uPA catalytic assay (Ex. 7) [4]: 100000 pM | Kd (recombinant human sc-uPA [5]): 370 pM | koff (recombinant human sc-uPA [5]): 0.000381 s⁻¹ | kon (recombinant human sc-uPA [5]): 1.03e+06 M⁻¹ s⁻¹ | Kd [6]: 5320 pM | koff [6]: 0.00717 s⁻¹ | kon [6]: 1.35e+06 M⁻¹ s⁻¹
B4: 0266-0000-0015 (antibody, IgG1, V domains shown)
VH: QIQLVQSGPELKKPGETVRISCKASGYTFTDYGMNWIKQTPGKGLKWMGWINTYSGEPTYSDEFKGRFAFSLETSASTASLQINNLKNEDMATYFCARDFDDYDSSRYFDVWGAGTTVTVSS
VL: DIVMSQSPSSLGVSVGEKLTMTCKSSQSLLYSSYQKNFLAWYQQKPGQSPKLLISWASTRDSGVPDRFTGSGSGTDFTLTISSVKAEDLAVYYCQQYYIYPPTFGGGTKLEIK
notes: also called hybridoma m-uPA-1F58A1
